Holding throughout (test): cytokine release
The target in assay [1] is T1, ATM G2695V peptide on HLA-A*03:01 (human).
T1 peptide: LAGVVNLPK
From the text: (§1) To confirm the specificity and activity of nucleic acid encoding TCRs against ATM and ARID1A, each of the codon optimized nucleic acids were introduced into donor T cells. The chimeric TCR-transduced T cells (TRBV9*01+TRAV14/DV4 chimeric TCR) were co-cultured with dendritic cells expressing wildtype ATM or mutated forms of ATM (G2695V, G2695A, G2695C, or G2695S). The chimeric TCR-transduced T cells (TRBV25-1+TRAV20 chimeric TCR) were co-cultured with dendritic cells expressing wildtype ARID1A or ARID1A H1960fs. After overnight incubation, the supernatant was assessed for production of interferon-gamma using an ELISA. […] See FIGS. 9A and 9B, respectively.

For assay [2], the target named is T2, ATM G2695A peptide on HLA-A*03:01 (human).
T2 peptide: LAGAVNLPK
From the text: as §1

In assay [3] the target is T3, ATM G2695C peptide on HLA-A*03:01 (human).
T3 peptide: LAGCVNLPK
From the text: as §1

Assay [4] addresses T4, ATM G2695S peptide on HLA-A*03:01 (human).
T4 peptide: LAGSVNLPK
From the text: as §1

Assay [5] has as its target T5, ATM wild type (glycine at 2695) peptide on HLA-A*03:01 (human).
T5 peptide: LAGGVNLPK
From the text: as §1

B1: TRBV9*01+TRAV14/DV4 TCR (TCR, V domains shown)
Valpha: AQKITQTQPGMFVQEKEAVTLDCTYDTSDQSYGLFWYKQPSSGEMIFLIYQGSYDEQNATEGRYSLNFQKARKSANLVISASQLGDSAMYFCAMREQGAQKLVFGQGTRLTINP
Vbeta: DSGVTQTPKHLITATGQQVTLRCSPRSGDLSVYWYQQSLDQGLQFLIQYYNGEERAKGNILERFSAQQFPDLHSELNLSSLELGDSALYFCASSAAVHYGYTFGSGTRLTVV
As to B1, the binding result in assay [1] was “recognises”; in assay [2], “recognises”; in assay [3] it was “recognises”; in assay [4] it was “recognises”; in assay [5], “no recognition”.

The values are drawn from patent publication US12715902B2 (dated 2026).
